Laboratory results as given in patent US20090011997A1 (THERATECHNOLOGIES, published 2009).
Bridge positions count the residues as written; N and C are the ends. Square brackets hold non-standard residues; d marks the D form.

Experiments:
[1] = biological target: MCR1 receptor (on MCR1 receptor-expressing B16-F1 cells) (UniProt Q01727 1-315); experiment: cell-based or functional assay
ANP receptor (on ANP …) = biological target: ANP receptor (on ANP receptor-expressing LLC-PK1 cells); experiment: cell-based or functional assay

Sequence of MCR1 receptor (on MCR1 receptor-expressing B16-F1 cells) (Q01727 whole entry): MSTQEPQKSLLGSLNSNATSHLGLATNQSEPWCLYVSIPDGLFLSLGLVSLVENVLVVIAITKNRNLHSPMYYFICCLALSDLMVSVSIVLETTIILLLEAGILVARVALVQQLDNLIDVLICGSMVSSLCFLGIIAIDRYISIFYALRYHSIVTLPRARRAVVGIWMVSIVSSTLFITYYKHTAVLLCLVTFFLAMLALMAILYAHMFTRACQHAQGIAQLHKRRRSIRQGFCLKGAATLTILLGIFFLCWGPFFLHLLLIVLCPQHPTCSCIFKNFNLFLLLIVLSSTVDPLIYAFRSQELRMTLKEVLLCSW

| Binder | EC50 on the production of cAMP (BC16-F1 cells) [1] | EC50 on the production of cGMP (LLC-PK1 cells) (ANP receptor (on ANP …)) |
| --- | --- | --- |
| Ac-H[dF]RWGKPMCHFGGRMDRISCYR-NH2 (disulfide 9-20; SMILES CC[C@H](C)[C@@H]1NC(=O)[C@H](CCCNC(=N)N)NC(=O)[C@H](CC(=O)O)NC(=O)[C@H](CCSC)NC(=O)[C@H](CCCNC(=N)N)NC(=O)CNC(=O)CNC(=O)[C@H](Cc2ccccc2)NC(=O)[C@H](Cc2c[nH]cn2)NC(=O)[C@@H](NC(=O)[C@H](CCSC)NC(=O)[C@@H]2CCCN2C(=O)[C@H](CCCCN)NC(=O)CNC(=O)[C@H](Cc2c[nH]c3ccccc23)NC(=O)[C@H](CCCNC(=N)N)NC(=O)[C@@H](Cc2ccccc2)NC(=O)[C@H](Cc2c[nH]cn2)NC(C)=O)CSSC[C@@H](C(=O)N[C@@H](Cc2ccc(O)cc2)C(=O)N[C@@H](CCCNC(=N)N)C(N)=O)NC(=O)[C@H](CO)NC1=O) [bifunctional hormone of SEQ ID NO: 31] | 20.9 nM | 74.3 nM |
| SLRRSSCFGGRMDRIGAQSGLGCNSFRYHXRW (disulfide bridge between C residues at positions 7 and 23; D-Phe (f) at position 30; C-terminal amidation (NH2)) [bifunctional hormone of SEQ ID NO: 40] | 9.8 nM | 7000 nM |
| Ac-EH[dF]RWGRRSSCFGGRMDRIGAQSGLGCNSFRY-NH2 (disulfide 11-27; SMILES CC[C@H](C)[C@@H]1NC(=O)[C@H](CCCNC(=N)N)NC(=O)[C@H](CC(=O)O)NC(=O)[C@H](CCSC)NC(=O)[C@H](CCCNC(=N)N)NC(=O)CNC(=O)CNC(=O)[C@H](Cc2ccccc2)NC(=O)[C@@H](NC(=O)[C@H](CO)NC(=O)[C@H](CO)NC(=O)[C@H](CCCNC(=N)N)NC(=O)[C@H](CCCNC(=N)N)NC(=O)CNC(=O)[C@H](Cc2c[nH]c3ccccc23)NC(=O)[C@H](CCCNC(=N)N)NC(=O)[C@@H](Cc2ccccc2)NC(=O)[C@H](Cc2c[nH]cn2)NC(=O)[C@H](CCC(=O)O)NC(C)=O)CSSC[C@@H](C(=O)N[C@@H](CC(N)=O)C(=O)N[C@@H](CO)C(=O)N[C@@H](Cc2ccccc2)C(=O)N[C@@H](CCCNC(=N)N)C(=O)N[C@@H](Cc2ccc(O)cc2)C(N)=O)NC(=O)CNC(=O)[C@H](CC(C)C)NC(=O)CNC(=O)[C@H](CO)NC(=O)[C@H](CCC(N)=O)NC(=O)[C@H](C)NC(=O)CNC1=O) [bifunctional hormone of SEQ ID NO: 42] | 6 nM | 502 nM |
